We go through 1 molecule from patent publication US20240101647A1 (published 2024).

As a reminder, the koff is the rate constant with which the complex falls apart. Low readings indicate a long-lived complex, high ones a short-lived complex.

This assay concerns the target monomeric human Fc-fused SARS-CoV-2_RBD-SD1 (UniProt P0DTC2 319-591). Nature of the assay: BLI. On the technique in general: Biolayer interferometry detects binding as a change in optical thickness at a sensor tip.

B1: VHH3.89 (VHH)
VHH: QVQLQESGGGLVQPGGSLRLSCAASGFTLDYYAIGWFREVPGKEREGLSRIDSSDGSTYYADSVKGRFTISRDNTKNIVYLQMNNLKPEDTAVYYCATDPIIQGRNWYWTGWGQGTQVTVSS
Consider B1, for which the koff turned out to be 0.0002 s⁻¹.
